# Source: PMC7127797 (Virus Research, 2004)
# B1: SARS-CoV membrane (M) protein in the pVP16 vector (pVP16-M) (natural protein)
# chain: MADNGTITVEELKQLLEQWNLVIGFLFLAWIMLLQFAYSNRNRFLYIIKLVFLWLLWPVTLACFVLAAVYRINWVTGGIAIAMACIVGLMWLSYFVASFRLFARTRSMWSFNPETNILLNVPLRGTIVTRPLMESELVIGAVIIRGHLRMAGHSLGRCDIKDLPKEITVATSRTLSYYKLGASQRVGTDSGFAAYNRYRIGNYKLNTDHAGSNDNIALLVQ
# Molecular target: SARS-CoV nucleocapsid (N) protein, full length, in the pM vector (pM-N) (SARS-CoV, UniProt P59595 1-422)
# Test: two-hybrid
# SARS-CoV nucleocapsid (N) protein, full length, in the pM vector (pM-N), sequence (P59595 whole entry): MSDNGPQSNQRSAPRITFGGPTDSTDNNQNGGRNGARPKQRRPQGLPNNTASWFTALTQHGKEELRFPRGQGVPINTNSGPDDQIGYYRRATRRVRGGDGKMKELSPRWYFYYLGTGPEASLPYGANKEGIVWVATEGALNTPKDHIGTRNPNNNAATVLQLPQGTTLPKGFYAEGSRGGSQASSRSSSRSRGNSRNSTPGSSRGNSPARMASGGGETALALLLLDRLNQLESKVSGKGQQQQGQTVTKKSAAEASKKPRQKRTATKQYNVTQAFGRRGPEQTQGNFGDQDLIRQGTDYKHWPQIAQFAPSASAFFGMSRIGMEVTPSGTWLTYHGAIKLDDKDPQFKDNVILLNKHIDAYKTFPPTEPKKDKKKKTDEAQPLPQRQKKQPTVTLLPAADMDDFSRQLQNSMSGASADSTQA
binder,measurement,value
B1,fold chemiluminescence (SEAP) over controls,> 5 fold
